# Target: syntaxin-1, endogenous in cultured mouse neurons (mouse (endogenous in cultured neurons of Syt1 KO mice)) (UniProt O35526)
# Experiment: co-IP
# UniProt O35526, sequence (O35526 whole entry): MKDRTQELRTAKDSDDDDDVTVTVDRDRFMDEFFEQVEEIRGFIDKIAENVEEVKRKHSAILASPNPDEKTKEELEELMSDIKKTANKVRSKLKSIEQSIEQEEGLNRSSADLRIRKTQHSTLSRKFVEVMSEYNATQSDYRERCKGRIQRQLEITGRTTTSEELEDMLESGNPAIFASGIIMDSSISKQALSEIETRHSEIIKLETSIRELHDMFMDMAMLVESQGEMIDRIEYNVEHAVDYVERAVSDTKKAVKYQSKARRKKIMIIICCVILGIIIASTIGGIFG
substance,measurement,value
"Synaptotagmin-1 R322E K325E mutant, expressed in Syt1 KO neurons (from UniProt P21707 1-421) (natural protein)",decrease of co-immunoprecipitated Syt1 against WT Syt1,62%
